The source of these data is article PMC5084272.

The target of this assay is EGFP-labeled Kif15 (EGFP-Kif15) (human). Nature of the assay: single-molecule fluorescence intensity and photobleaching steps.

Several values for one entry are separate records, joined by “and”; a condition that tells them apart may be missing. Equal values may be shown once.

In the case of “EGFP-labeled Kif15 (EGFP-Kif15) (natural protein)”, the stoichiometry N – broadly, the number of molecules, sites or subunits per partner or assembly – was 2 and > 2.
